Assay results reported in patent publication US20170211067, “ANTAGONISTIC CTLA-4 APTAMERS AND APPLICATIONS THEREOF IN ENHANCING IMMUNE ACTIVITY” (Academia Sinica, published 2017).

B1: CA21 (ssDNA)
DNA: TCCCTACGGCGCTAACGATGGTGAAAATGGGCCTAGGGTGGACGGTGCCACCGTGCTACAAC
B2: CA82 (ssDNA)
DNA: TCCCTACGGCGCTAACCGATCGAAAATGTCCAGGGAGTTGTCTGTAGCCACCGTGCTACAAC
B3: CA32 (ssDNA)
DNA: TCCCTACGGCGCTAACGTCCACACTCAGAAAACAGAATAGGGGGTAGCCACCGTGCTACAAC

Tests used:
CTLA-4 [1] = molecular target: CTLA-4 (Mus musculus, UniProt P09793 P09793:36-161); test: CA21 stated to cross-react with mouse CTLA-4, assay not described; details: label: AlexaFluor 647 (flow cytometry)
Sequence of CTLA-4 (Mus musculus, UniProt P09793 P09793:36-161) (P09793 36-161, one chain of several): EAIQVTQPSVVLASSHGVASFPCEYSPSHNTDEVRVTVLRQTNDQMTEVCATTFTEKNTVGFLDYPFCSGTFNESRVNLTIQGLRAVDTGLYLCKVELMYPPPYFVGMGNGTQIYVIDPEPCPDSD

CTLA-4 [2] = molecular target: T1, CTLA-4 (UniProt P16410 P16410:36-161); test: CTLA-4 stably expressing 293 cells, 2-fold dilutions from 250 nM; no binding to non-transfected 293T by flow at 10 nM; details: tags: expressed on CTLA-4-transfected 293T / stably expressing 293 cells; label: AlexaFluor 647 (flow cytometry); possible G-quadruplex; Mfold secondary structure dG -10.6
T1 sequence (P16410 36-161, one chain of several): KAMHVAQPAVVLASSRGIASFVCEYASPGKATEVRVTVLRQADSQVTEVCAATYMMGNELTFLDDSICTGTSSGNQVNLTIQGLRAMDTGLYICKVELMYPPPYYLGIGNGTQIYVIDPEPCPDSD
Procedure: (§1) Panels A and B are FACS analysis diagrams showing the binding activities of selected aptamers to CTLA-4 expressed on wild-type 293T cells. […] The cells of panel A and panel B were incubated with 10 nM of AlexaFluor 647 labeled CA7, CA21, CA32 and CA82 aptamer as indicated. After washing away the unbounded aptamer, the fluorescent signals were measured by flow cytometry and the results of wild-type 293T cells are shown in panel A. The results for CTLA-4 expressing wild-type 293T cells are shown in panel B. Panels C, D, E and F show the CTLA-4 binding affinity of the aptamers CA7, CA21, CA32 and CA82, respectively. The four aptamers were selected and characterized for their binding affinity against CTLA-4 expressing cells. These aptamers were first synthesized and followed by 2-fold serial dilution which started from 250 nM. Six dosage points were analyzed after incubation of the selected pool with CTLA-4 stably expressed 293 cells.
(§2) Four aptamers (CA7, CA21, CA32 and CA82) isolated by the method described in Example 1 were selected by their higher structural stability. The binding specificity of these four aptamers were analyzed by flow cytometry. All four of these apatmers specifically recognized CTLA-4-expressing cells, except a relatively low non-specific binding signal in CA7 against wild type 293 cells (FIG. 2, panels A and B). […]

CTLA-4 [3] = molecular target: T1, CTLA-4; test: CTLA-4 stably expressing 293 cells; no binding to non-transfected 293T by flow at 10 nM; details: tags: expressed on CTLA-4-transfected 293T / stably expressing 293 cells; label: AlexaFluor 647 (flow cytometry)
Procedure: as §1, §2

Binder	binding result (CTLA-4 [1])	Kd (CTLA-4 [2]) [nM]	Kd (CTLA-4 [3]) [nM]
B1	binds	11.8	–
B2	–	–	36.5
B3	–	–	61.8
